Experimental data as given in article PMC12866175 (European journal of nuclear medicine and molecular imaging, 2021).

Assay: Radiation dosimetry and clearance kinetics from biodistribution data
Assay type: in vivo, BALB/c mice
Conditions: for Total absorbed dose/injected activity: sum of five α-emitting radionuclides

For C[C@@H](O)[C@H](NC(=O)[C@@H]1CSSC[C@H](NC(=O)[C@@H](Cc2ccccc2)NC(=O)CN2CCN(CC(=O)O)CCN(CC(=O)O)CCN(CC(=O)O)CC2)C(=O)N[C@@H](Cc2ccc(O)cc2)C(=O)N[C@H](Cc2c[nH]c3ccccc23)C(=O)N[C@@H](CCCCN)C(=O)N[C@@H]([C@@H](C)O)C(=O)N1)C(=O)O [[^225Ac]Ac-DOTA-TATE, metal not drawn], the “Initial activity/organ, A○” value (^217At, Muscle) was 0.0052 kBq, the Absorbed dose/injected activity (^217At, Pancreas) was 0.0003 Gy/kBq and the “Accumulated activity/organ, A~” value (^217At, Pancreas) was 1.1933 kBq×h. For the same compound, the “Decay rate constant, λeff” value (^217At, Pancreas) was 0.0080 h⁻¹, the “Initial activity/organ, A○” value (^217At, Pancreas) was 0.0169 kBq and the Absorbed dose/injected activity (^217At, Salivary) was 0.0002 Gy/kBq. The “Accumulated activity/organ, A~” value (^217At, Salivary) was 0.7036 kBq×h, the “Decay rate constant, λeff” value (^217At, Salivary) was -0.0028 h⁻¹ and the “Initial activity/organ, A○” value (^217At, Salivary) was 0.0037 kBq. For the same compound, the Absorbed dose/injected activity (^217At, Skin) was 0.0001 Gy/kBq, the “Accumulated activity/organ, A~” value (^217At, Skin) was 0.6489 kBq×h and the “Decay rate constant, λeff” value (^217At, Skin) was -0.0015 h⁻¹. The “Initial activity/organ, A○” value (^217At, Skin) was 0.0039 kBq, the Absorbed dose/injected activity (^217At, Spleen) was 0.0004 Gy/kBq and the “Accumulated activity/organ, A~” value (^217At, Spleen) was 1.0604 kBq×h. The “Decay rate constant, λeff” value (^217At, Spleen) was 0.0030 h⁻¹, the “Initial activity/organ, A○” value (^217At, Spleen) was 0.0097 kBq and the Absorbed dose/injected activity (^217At, Stomach) was 0.0005 Gy/kBq. The “Accumulated activity/organ, A~” value (^217At, Stomach) was 3.0452 kBq×h, the “Decay rate constant, λeff” value (^217At, Stomach) was 0.0170 h⁻¹ and the Absorbed dose/injected activity (^221Fr, Blood) was 0.0001 Gy/kBq. For the same compound, the “Accumulated activity/organ, A~” value (^221Fr, Blood) was 0.5594 kBq×h, the “Decay rate constant, λeff” value (^221Fr, Blood) was -0.0071 h⁻¹ and the “Initial activity/organ, A○” value (^221Fr, Blood) was 0.0019 kBq. The Absorbed dose/injected activity (^221Fr, Bone) was 0.0003 Gy/kBq, the “Accumulated activity/organ, A~” value (^221Fr, Bone) was 1.0195 kBq×h and the “Decay rate constant, λeff” value (^221Fr, Bone) was 0.0100 h⁻¹. The “Initial activity/organ, A○” value (^221Fr, Bone) was 0.0170 kBq, the Absorbed dose/injected activity (^221Fr, Brain) was 0.0001 Gy/kBq and the “Accumulated activity/organ, A~” value (^221Fr, Brain) was 0.7934 kBq×h. For the same compound, the “Decay rate constant, λeff” value (^221Fr, Brain) was -0.0044 h⁻¹, the “Initial activity/organ, A○” value (^221Fr, Brain) was 0.0036 kBq and the Absorbed dose/injected activity (^221Fr, Heart) was 0.0000 Gy/kBq. The “Accumulated activity/organ, A~” value (^221Fr, Heart) was 0.2102 kBq×h, the “Decay rate constant, λeff” value (^221Fr, Heart) was 0.0190 h⁻¹ and the “Initial activity/organ, A○” value (^221Fr, Heart) was 0.0067 kBq. For the same compound, the Absorbed dose/injected activity (^221Fr, Intestine) was 0.0002 Gy/kBq, the “Accumulated activity/organ, A~” value (^221Fr, Intestine) was 7.2991 kBq×h and the “Decay rate constant, λeff” value (^221Fr, Intestine) was 0.0130 h⁻¹. For the same compound, the Absorbed dose/injected activity (^221Fr, Kidney) was 0.0019 Gy/kBq, the “Accumulated activity/organ, A~” value (^221Fr, Kidney) was 12.5136 kBq×h and the “Decay rate constant, λeff” value (^221Fr, Kidney) was 0.0190 h⁻¹. The “Initial activity/organ, A○” value (^221Fr, Kidney) was 0.4011 kBq, the Absorbed dose/injected activity (^221Fr, Liver) was 0.0014 Gy/kBq and the “Accumulated activity/organ, A~” value (^221Fr, Liver) was 32.1637 kBq×h. For the same compound, the “Decay rate constant, λeff” value (^221Fr, Liver) was -0.0033 h⁻¹, the “Initial activity/organ, A○” value (^221Fr, Liver) was 0.1612 kBq and the Absorbed dose/injected activity (^221Fr, Lung) was 0.0003 Gy/kBq. For the same compound, the “Accumulated activity/organ, A~” value (^221Fr, Lung) was 1.7734 kBq×h, the “Decay rate constant, λeff” value (^221Fr, Lung) was 0.0080 h⁻¹ and the “Initial activity/organ, A○” value (^221Fr, Lung) was 0.0251 kBq. For the same compound, the Absorbed dose/injected activity (^221Fr, Muscle) was 0.0000 Gy/kBq, the “Accumulated activity/organ, A~” value (^221Fr, Muscle) was 0.1848 kBq×h and the “Decay rate constant, λeff” value (^221Fr, Muscle) was 0.0170 h⁻¹. For the same compound, the “Initial activity/organ, A○” value (^221Fr, Muscle) was 0.0052 kBq, the Absorbed dose/injected activity (^221Fr, Pancreas) was 0.0003 Gy/kBq and the “Accumulated activity/organ, A~” value (^221Fr, Pancreas) was 1.1933 kBq×h. For the same compound, the “Decay rate constant, λeff” value (^221Fr, Pancreas) was 0.0080 h⁻¹, the “Initial activity/organ, A○” value (^221Fr, Pancreas) was 0.0169 kBq and the Absorbed dose/injected activity (^221Fr, Salivary) was 0.0002 Gy/kBq. For the same compound, the “Accumulated activity/organ, A~” value (^221Fr, Salivary) was 0.7036 kBq×h, the “Decay rate constant, λeff” value (^221Fr, Salivary) was -0.0028 h⁻¹ and the “Initial activity/organ, A○” value (^221Fr, Salivary) was 0.0037 kBq. The Absorbed dose/injected activity (^221Fr, Skin) was 0.0001 Gy/kBq, the “Accumulated activity/organ, A~” value (^221Fr, Skin) was 0.6489 kBq×h and the “Decay rate constant, λeff” value (^221Fr, Skin) was -0.0015 h⁻¹. The “Initial activity/organ, A○” value (^221Fr, Skin) was 0.0039 kBq, the Absorbed dose/injected activity (^221Fr, Spleen) was 0.0004 Gy/kBq and the “Accumulated activity/organ, A~” value (^221Fr, Spleen) was 1.0604 kBq×h. For the same compound, the “Decay rate constant, λeff” value (^221Fr, Spleen) was 0.0030 h⁻¹, the “Initial activity/organ, A○” value (^221Fr, Spleen) was 0.0097 kBq and the Absorbed dose/injected activity (^221Fr, Stomach) was 0.0004 Gy/kBq. For the same compound, the “Accumulated activity/organ, A~” value (^221Fr, Stomach) was 3.0452 kBq×h, the “Decay rate constant, λeff” value (^221Fr, Stomach) was 0.0170 h⁻¹ and the “Initial activity/organ, A○” value (^221Fr, Stomach) was 0.0852 kBq. The “lower effective half-life of kidneys compared to liver” value (^225Ac) was ~5 fold, the Absorbed dose/injected activity (^225Ac, Blood) was 0.0000 Gy/kBq and the “Accumulated activity/organ, A~” value (^225Ac, Blood) was 0.0080 kBq×h. The “Decay rate constant, λeff” value (^225Ac, Blood) was 0.0206 h⁻¹, the “Initial activity/organ, A○” value (^225Ac, Blood) was 0.0003 kBq and the Absorbed dose/injected activity (^225Ac, Bone) was 0.0004 Gy/kBq. For the same compound, the “Accumulated activity/organ, A~” value (^225Ac, Bone) was 1.4274 kBq×h, the “Decay rate constant, λeff” value (^225Ac, Bone) was 0.0030 h⁻¹ and the “Initial activity/organ, A○” value (^225Ac, Bone) was 0.0131 kBq. For the same compound, the Absorbed dose/injected activity (^225Ac, Brain) was 0.0001 Gy/kBq, the “Accumulated activity/organ, A~” value (^225Ac, Brain) was 0.8190 kBq×h and the “Decay rate constant, λeff” value (^225Ac, Brain) was -0.0103 h⁻¹. The “Initial activity/organ, A○” value (^225Ac, Brain) was 0.0019 kBq, the Absorbed dose/injected activity (^225Ac, Heart) was 0.0001 Gy/kBq and the “Accumulated activity/organ, A~” value (^225Ac, Heart) was 0.4871 kBq×h. For the same compound, the “Decay rate constant, λeff” value (^225Ac, Heart) was -0.0004 h⁻¹, the “Initial activity/organ, A○” value (^225Ac, Heart) was 0.0033 kBq and the Absorbed dose/injected activity (^225Ac, Intestine) was 0.0001 Gy/kBq. For the same compound, the “Accumulated activity/organ, A~” value (^225Ac, Intestine) was 4.4589 kBq×h, the “Decay rate constant, λeff” value (^225Ac, Intestine) was 0.0200 h⁻¹ and the “Initial activity/organ, A○” value (^225Ac, Intestine) was 0.1527 kBq. For the same compound, the Absorbed dose/injected activity (^225Ac, Kidney) was 0.0012 Gy/kBq, the “Accumulated activity/organ, A~” value (^225Ac, Kidney) was 8.2462 kBq×h and the “Decay rate constant, λeff” value (^225Ac, Kidney) was 0.0250 h⁻¹. For the same compound, the “Initial activity/organ, A○” value (^225Ac, Kidney) was 0.3862 kBq, the Absorbed dose/injected activity (^225Ac, Liver) was 0.0012 Gy/kBq and the “Accumulated activity/organ, A~” value (^225Ac, Liver) was 29.4458 kBq×h. For the same compound, the “Decay rate constant, λeff” value (^225Ac, Liver) was -0.0053 h⁻¹, the “Initial activity/organ, A○” value (^225Ac, Liver) was 0.1200 kBq and the Absorbed dose/injected activity (^225Ac, Lung) was 0.0001 Gy/kBq. For the same compound, the “Accumulated activity/organ, A~” value (^225Ac, Lung) was 1.0829 kBq×h, the “Decay rate constant, λeff” value (^225Ac, Lung) was 0.0130 h⁻¹ and the “Initial activity/organ, A○” value (^225Ac, Lung) was 0.0227 kBq. The Absorbed dose/injected activity (^225Ac, Muscle) was 0.0001 Gy/kBq, the “Accumulated activity/organ, A~” value (^225Ac, Muscle) was 0.5613 kBq×h and the “Decay rate constant, λeff” value (^225Ac, Muscle) was -0.0049 h⁻¹. The “Initial activity/organ, A○” value (^225Ac, Muscle) was 0.0024 kBq, the Absorbed dose/injected activity (^225Ac, Pancreas) was 0.0003 Gy/kBq and the “Accumulated activity/organ, A~” value (^225Ac, Pancreas) was 1.4271 kBq×h. For the same compound, the “Decay rate constant, λeff” value (^225Ac, Pancreas) was 0.0060 h⁻¹, the “Initial activity/organ, A○” value (^225Ac, Pancreas) was 0.0171 kBq and the Absorbed dose/injected activity (^225Ac, Salivary) was 0.0002 Gy/kBq. For the same compound, the “Accumulated activity/organ, A~” value (^225Ac, Salivary) was 0.8906 kBq×h, the “Decay rate constant, λeff” value (^225Ac, Salivary) was -0.0077 h⁻¹ and the “Initial activity/organ, A○” value (^225Ac, Salivary) was 0.0028 kBq. For the same compound, the Absorbed dose/injected activity (^225Ac, Skin) was 0.0001 Gy/kBq, the “Accumulated activity/organ, A~” value (^225Ac, Skin) was 0.8656 kBq×h and the “Decay rate constant, λeff” value (^225Ac, Skin) was -0.0092 h⁻¹. The “Initial activity/organ, A○” value (^225Ac, Skin) was 0.0023 kBq, the Absorbed dose/injected activity (^225Ac, Spleen) was 0.0001 Gy/kBq and the “Accumulated activity/organ, A~” value (^225Ac, Spleen) was 0.3228 kBq×h. For the same compound, the “Decay rate constant, λeff” value (^225Ac, Spleen) was 0.0062 h⁻¹, the “Initial activity/organ, A○” value (^225Ac, Spleen) was 0.0039 kBq and the Absorbed dose/injected activity (^225Ac, Stomach) was 0.0004 Gy/kBq. For the same compound, the “Accumulated activity/organ, A~” value (^225Ac, Stomach) was 2.6801 kBq×h, the “Decay rate constant, λeff” value (^225Ac, Stomach) was 0.0190 h⁻¹ and the “Initial activity/organ, A○” value (^225Ac, Stomach) was 0.0859 kBq. For the same compound, the “Total absorbed dose/injected activity” value (Blood) was 0.0002 Gy/kBq, the “Total absorbed dose/injected activity” value (Bone) was 0.0014 Gy/kBq and the “Total absorbed dose/injected activity” value (Brain) was 0.0004 Gy/kBq. For the same compound, the “Total absorbed dose/injected activity” value (Heart) was 0.0004 Gy/kBq, the “Total absorbed dose/injected activity” value (Intestine) was 0.0007 Gy/kBq and the “Total absorbed dose/injected activity” value (Kidney) was 0.0068 Gy/kBq. For the same compound, the “Total absorbed dose/injected activity” value (Liver) was 0.0059 Gy/kBq, the “Total absorbed dose/injected activity” value (Lung) was 0.0009 Gy/kBq and the “Total absorbed dose/injected activity” value (Muscle) was 0.0003 Gy/kBq. For the same compound, the “Total absorbed dose/injected activity” value (Pancreas) was 0.0011 Gy/kBq, the “Total absorbed dose/injected activity” value (Salivary) was 0.0008 Gy/kBq and the “Total absorbed dose/injected activity” value (Skin) was 0.0004 Gy/kBq. For the same compound, the “Total absorbed dose/injected activity” value (Spleen) was 0.0016 Gy/kBq and the “Total absorbed dose/injected activity” value (Stomach) was 0.0017 Gy/kBq.
